Results: patent US20250215104A1 (WALDEN BIOSCIENCES, published 2025)
Residue numbers refer to the chain shown, from its start. In names and notes the source's numbering stands.

B1: suPAR_DB05_E01 (scFv, V domains shown)
VH: QVQLVQSGAEVKKPGASVKVSCKASGYTFTNYYMHWVRQAPGQGLEWMGWIDHENGNTIYDQKFQGRVTMTRDTSTSTVYMELSSLRSEDTAVYYCARGYDVDWFVYWGQGTLVTVSS
VL: DIQMTQSPSSLSASVGDRVTITCRARSSVSYMYWYQQKPGKAPKLLIYRTSNLASGVPSRFSGSGSGTDFTLTISSLQPEDFATYYCQQYHSYPPTFGGGTKVEIK
notes: Screened as scFv
B2: suPAR_DB05_B08 (scFv, V domains shown)
VH: B1 VH with Y27N, T28A, T30S, N31G, Y32H, M34V, D61A
VL: B1 VL with R24S, S27Q
notes: Screened as scFv
B3: suPAR_DB05_D11 (scFv, V domains shown)
VH: B1 VH with F29L, N31G, H35Q, H53P, N57S
VL: B1 VL with R24S, R26S
notes: Screened as scFv
B4: suPAR_DB05_D09 (scFv, V domains shown)
VH: B1 VH with N31S, H53P, D61A
VL: B1 VL with R24S, N52S
notes: Screened as scFv
B5: suPAR_DB05_B05 (scFv, V domains shown)
VH: B1 VH with Y27N, T30S, N31G, M34V, H53P, E54S
VL: B1 VL with R24S
notes: Screened as scFv
B6: suPAR_DB05_E02 (scFv, V domains shown)
VH: B1 VH with N31S, H53L, E54N, N55S, N57G, T58A, I59K, D61A, K63R
VL: B1 VL with R24S
notes: Screened as scFv
B7: suPAR_DB05_D10 (scFv, V domains shown)
VH: B1 VH with T30S, M34I, Y100T
VL: B1 VL with S27Q
notes: Screened as scFv
B8: suPAR_DB05_D05 (scFv, V domains shown)
VH: B1 VH with E54S, N57S
VL: B1 VL with S27Q
notes: Screened as scFv
B9: suPAR_DB05_D08 (scFv, V domains shown)
VH: B1 VH with N31R, M48V, H53P, E54H, N55S, N57G, I59N, D61A, V102I
VL: B1 VL with R24S, S27Q
notes: Screened as scFv
B10: suPAR_DB05_D01 (scFv, V domains shown)
VH: B1 VH with Y27H, F29S, N55G, I59S
VL: B1 VL with R24S
notes: Screened as scFv
B11: suPAR_DB05_D06 (scFv, V domains shown)
VH: B1 VH with T30S, N31S, Y100D
VL: B1 VL with R24S
notes: Screened as scFv
B12: suPAR_DB05_E05 (scFv, V domains shown)
VH: B1 VH with T28N, E54S, N57S
VL: B1 VL with R24S
notes: Screened as scFv
B13: suPAR_DB05_C11 (scFv, V domains shown)
VH: B1 VH with T28I, N31S, H53P, E54Y, N55S, N57A, I59N, D61A
VL: B1 VL with V29I
notes: Screened as scFv
B14: suPAR_DB05_D03 (scFv, V domains shown)
VH: B1 VH with T30G, D61A, Y100N
VL: B1 VL with R24S
notes: Screened as scFv
B15: suPAR_DB05_C05 (scFv, V domains shown)
VH: QVQLVQSGAEVKKPGASVKVSCKASGYNIKSYYIHWVRQAPGQGLEWMGWIDPNSGGTNYAQNFQGRVTMTRDTSTSTVYMELSSLRSEDTAVYYCARGYDVDWFVYWGQGTLVTVSS
VL: B1 VL with R24S
notes: Screened as scFv
B16: suPAR_DB05_C03 (scFv, V domains shown)
VH: B1 VH with N55G, I59S, D61A
VL: B1 VL
notes: Screened as scFv
B17: suPAR_DB05_B09 (scFv, V domains shown)
VH: B1 VH with N31G, H53P, E54S, N55G
VL: B1 VL with R24S
notes: Screened as scFv
B18: suPAR_DB05_C02 (scFv, V domains shown)
VH: B1 VH with Y27D, N31S, H53P, E54S
VL: B1 VL with R24S
notes: Screened as scFv
B19: suPAR_DB05_E03 (scFv, V domains shown)
VH: B1 VH with Y27H, F29L, T30N, N31S, M34I, H53P, E54S, N55G
VL: B1 VL with R24S
notes: Screened as scFv
B20: suPAR_DB05_D02 (scFv, V domains shown)
VH: B1 VH with F29I, N31G, Y32N, N57S
VL: B1 VL with R24S, S27Q, V29I
notes: Screened as scFv
B21: suPAR_DB05_C09 (scFv, V domains shown)
VH: B1 VH with N31G, D52S, H53P, E54D, N55S, N57A, I59K, Y60V, D61A
VL: B1 VL with R24S
notes: Screened as scFv
B22: suPAR_DB05_C08 (scFv, V domains shown)
VH: B1 VH with N31S, H53P
VL: B1 VL with S27Q
notes: Screened as scFv
B23: suPAR_DB05_B11 (scFv, V domains shown)
VH: B1 VH with T30S, N31A, D61A
VL: B1 VL with R24S
notes: Screened as scFv
B24: suPAR_DB05_E04 (scFv, V domains shown)
VH: B1 VH with T28S, N31S, Y32N
VL: B1 VL with R24S
notes: Screened as scFv
B25: suPAR_DB05_D12 (scFv, V domains shown)
VH: B1 VH with Y27F, M34F, H53P
VL: B1 VL with R24S
notes: Screened as scFv
B26: suPAR_DB05_C07 (scFv, V domains shown)
VH: B1 VH with N31S, Y32H, M34V, N55G, N57S, I59S
VL: B1 VL with S27Q
notes: Screened as scFv
B27: suPAR_DB05_B06 (scFv, V domains shown)
VH: B1 VH with T28P, N55G, N57S
VL: B1 VL with R24S, R26S, S27Q
notes: Screened as scFv
B28: suPAR_DB05_C04 (scFv, V domains shown)
VH: B1 VH with Y27F, T28N, F29I, T30K, N31D, M34I, H53P
VL: B1 VL with R24S, S27Q, A54Q
notes: Screened as scFv
B29: suPAR_DB05_C06 (scFv, V domains shown)
VH: B15 VH with Y27F, N63K
VL: B1 VL with R24S
notes: Screened as scFv
B30: WAb0001 (antibody, V domains shown)
VH: B15 VH with S31D, D52S, N54D, G57V, N63K
VL: B1 VL with R24S, S27Q
notes: constant regions not tied to this antibody; also called WAb CD0001
B31: WAb0009 (antibody, V domains shown)
VH: B1 VH with N31G, Y32H, M34V
VL: B1 VL with R24S
notes: constant regions not tied to this antibody; also called WAb CD0009
B32: WAb0002 (antibody, V domains shown)
VH: B15 VH with S31D, D52S, N54S, G57V, N63K
VL: B1 VL with R24S, S27Q
notes: constant regions not tied to this antibody; also called WAb CD0002
B33: WAb0010 (antibody, V domains shown)
VH: B1 VH with N31G, Y32N, M34V
VL: B1 VL with R24S
notes: constant regions not tied to this antibody; also called WAb CD0010
B34: WAb0007 (antibody, V domains shown)
VH: B1 VH with T30I, N31G, Y32S, M34V
VL: B1 VL with R24S, N52S
notes: also called WAb CD0007
B35: WAb0004 (antibody, V domains shown)
VH: B15 VH with Y27F, S31D, N54E, G57S, N59I, A61D, N63K, V102I
VL: B1 VL with R24S
notes: constant regions not tied to this antibody; also called WAb CD0004
B36: WAb0008 (antibody, V domains shown)
VH: B1 VH with N31S, Y32H, M34I, H35Q, Y100T
VL: B1 VL with R24S
notes: WAb0006 VL + mouse kappa constant; also called WAb CD0008; WAb008
B37: WAb0005 (antibody, V domains shown)
VH: B1 VH with T30I, N31G, Y32S, M34V
VL: B1 VL with R24S, N52S
notes: constant regions not tied to this antibody; also called WAb CD0005
B38: WAb0006 (antibody, V domains shown)
VH: B1 VH with N31S, Y32H, M34I, H35Q, Y100T
VL: B1 VL with R24S
notes: light chain is WAL0921 (human kappa) with Q27S; also called WAb CD0006; original backup candidate
B39: WAb0003 (antibody, V domains shown)
VH: B15 VH with Y27F, S31D, N54E, S55N, G57S, N59I, A61D, N63K, V102I
VL: B1 VL with R24S
notes: constant regions not tied to this antibody; also called WAb CD0003

Target: T1, human soluble urokinase plasminogen activator receptor (suPAR) (human, UniProt Q03405 23-303, limits assumed)
T1 construct: Column head says only 'human'; also called hsuPAR; human suPAR
Assay: BLI (Octet) off-rate screen of scFv clones
T1 sequence (Q03405 23-303 limits assumed): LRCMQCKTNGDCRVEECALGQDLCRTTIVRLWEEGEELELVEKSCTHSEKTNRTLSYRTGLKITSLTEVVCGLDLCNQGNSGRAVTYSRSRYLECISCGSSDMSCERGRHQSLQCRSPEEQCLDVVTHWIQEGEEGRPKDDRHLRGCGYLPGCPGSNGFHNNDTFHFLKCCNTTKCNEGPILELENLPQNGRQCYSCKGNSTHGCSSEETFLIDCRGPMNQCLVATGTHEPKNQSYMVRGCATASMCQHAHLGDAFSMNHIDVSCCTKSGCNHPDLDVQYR

Point of comparison: B25, koff 0.00477 s⁻¹. Against it:
- B1 — 2.3-fold lower, 0.00208 s⁻¹
- B2 — within 1.5-fold, 0.00488 s⁻¹
- B3 — within 1.5-fold, 0.00555 s⁻¹
- B4 — within 1.5-fold, 0.00384 s⁻¹
- B5 — within 1.5-fold, 0.00417 s⁻¹
- B6 — within 1.5-fold, 0.00517 s⁻¹
- B7 — within 1.5-fold, 0.006 s⁻¹
- B8 — 4.8-fold lower, 0.001 s⁻¹
- B9 — within 1.5-fold, 0.00471 s⁻¹
- B10 — within 1.5-fold, 0.00533 s⁻¹
- B11 — within 1.5-fold, 0.00345 s⁻¹
- B12 — 2.9-fold lower, 0.00165 s⁻¹
- B13 — within 1.5-fold, 0.00335 s⁻¹
- B14 — within 1.5-fold, 0.00345 s⁻¹
- B15 — within 1.5-fold, 0.00547 s⁻¹
- B16 — within 1.5-fold, 0.00367 s⁻¹
- B17 — 1.7-fold lower, 0.00273 s⁻¹
- B18 — within 1.5-fold, 0.00375 s⁻¹
- B19 — within 1.5-fold, 0.00535 s⁻¹
- B20 — 4.1-fold lower, 0.00116 s⁻¹
- B21 — within 1.5-fold, 0.00384 s⁻¹
- B22 — 1.7-fold lower, 0.00284 s⁻¹
- B23 — 2.2-fold lower, 0.00219 s⁻¹
- B24 — within 1.5-fold, 0.00544 s⁻¹
- B26 — within 1.5-fold, 0.00431 s⁻¹
- B27 — 2.2-fold lower, 0.00213 s⁻¹
- B28 — within 1.5-fold, 0.00452 s⁻¹
- B29 — within 1.5-fold, 0.00507 s⁻¹

Target: T2, cynomolgus soluble urokinase plasminogen activator receptor (suPAR) (cynomolgus, UniProt Q9GK78 23-303, limits assumed)
T2 construct: Column head says only 'cynomologus'; also called cynomolgus suPAR; cynomolgus uPAR
Assay: BLI (Octet) off-rate screen of scFv clones

T2 sequence (Q9GK78 23-303 limits assumed): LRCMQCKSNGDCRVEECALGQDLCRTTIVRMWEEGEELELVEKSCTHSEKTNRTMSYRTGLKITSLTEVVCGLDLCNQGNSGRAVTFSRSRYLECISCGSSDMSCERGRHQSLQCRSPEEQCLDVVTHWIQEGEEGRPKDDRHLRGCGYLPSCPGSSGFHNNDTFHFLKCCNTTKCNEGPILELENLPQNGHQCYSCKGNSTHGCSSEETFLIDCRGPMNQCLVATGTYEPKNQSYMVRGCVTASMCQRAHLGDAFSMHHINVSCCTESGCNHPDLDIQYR

Point of comparison: B6, koff 0.000824 s⁻¹. Against it:
- B1 — within 1.5-fold, 0.000767 s⁻¹
- B2 — 6.4-fold lower, 0.000129 s⁻¹
- B3 — within 1.5-fold, 0.000775 s⁻¹
- B4 — within 1.5-fold, 0.000666 s⁻¹
- B5 — 4.3-fold lower, 0.000193 s⁻¹
- B7 — within 1.5-fold, 0.000851 s⁻¹
- B8 — within 1.5-fold, 0.000669 s⁻¹
- B9 — 11-fold lower, 7.69e-05 s⁻¹
- B10 — 2.6-fold lower, 0.000315 s⁻¹
- B11 — 2.2-fold lower, 0.000375 s⁻¹
- B12 — 2.8-fold lower, 0.000298 s⁻¹
- B13 — 4.9-fold lower, 0.000168 s⁻¹
- B14 — 1.5-fold higher, 0.00124 s⁻¹
- B15 — 4.1-fold lower, 0.000202 s⁻¹
- B16 — 1.8-fold lower, 0.000455 s⁻¹
- B17 — within 1.5-fold, 0.000583 s⁻¹
- B18 — within 1.5-fold, 0.00061 s⁻¹
- B19 — 3.1-fold lower, 0.000265 s⁻¹
- B20 — 1.9-fold lower, 0.000435 s⁻¹
- B21 — 1.8-fold lower, 0.000464 s⁻¹
- B22 — 1.5-fold lower, 0.000548 s⁻¹
- B23 — 1.9-fold lower, 0.000431 s⁻¹
- B24 — 2.3-fold lower, 0.000354 s⁻¹
- B25 — 2.3-fold lower, 0.000352 s⁻¹
- B26 — 3.5-fold lower, 0.000237 s⁻¹
- B27 — 3.5-fold lower, 0.000234 s⁻¹
- B28 — 1.8-fold lower, 0.000457 s⁻¹
- B29 — 6.7-fold lower, 0.000123 s⁻¹

Target: T3, human soluble urokinase plasminogen activator receptor (suPAR) (human, UniProt Q03405 23-303, limits assumed)
T3 construct: also called hsuPAR; human suPAR
Assay: dissociation rate (kdis) on human suPAR; method not stated
T3 sequence (Q03405 23-303 limits assumed): as the sequence (Q03405 23-303 limits assumed) above

Point of comparison: B36, koff 2.83e-07 s⁻¹. Against it:
- B30 — within 1.5-fold, 3.04e-07 s⁻¹
- B31 — within 1.5-fold, 3.47e-07 s⁻¹
- B32 — 300-fold higher, 8.37e-05 s⁻¹
- B33 — within 1.5-fold, 3.89e-07 s⁻¹
- B34 — within 1.5-fold, 2.76e-07 s⁻¹
- B35 — within 1.5-fold, 2.61e-07 s⁻¹
- B37 — within 1.5-fold, 3.97e-07 s⁻¹
- B38 — within 1.5-fold, 3.39e-07 s⁻¹
- B39 — within 1.5-fold, 3.57e-07 s⁻¹
